Test [1] addresses 92-133 biotin labeled HCV core peptide (hepatitis C virus) (UniProt P26664).
In test [2] the target is C113T109N biotin labeled HCV core peptide (hepatitis C virus).
For test [3], the target named is Mut1T110N biotin labeled HCV core peptide (hepatitis C virus).
The target of test [4] is Mut6T110S biotin labeled HCV core peptide (hepatitis C virus).
For test [5], the target named is 92-133 biotin labeled HCV core peptide (hepatitis C virus) (UniProt P26664). The test is described as follows: EIA; Ab 62.5 ng/mL captured on anti-mouse Fc; bt-peptide 500 ng/mL.
Test [6] concerns the target C113T109N biotin labeled HCV core peptide (hepatitis C virus). Described as above.
Test [7] concerns the target Mut1T110N biotin labeled HCV core peptide (hepatitis C virus). Described as above.
Test [8] deals with Mut6T110S biotin labeled HCV core peptide (hepatitis C virus). The test is described as above.
The target of test [9] is 92-133 biotin labeled HCV core peptide (hepatitis C virus) (UniProt P26664). The test is described as follows: EIA; Ab 250 ng/mL captured on anti-mouse Fc; bt-peptide 500 ng/mL.
For test [10], the target named is C113T109N biotin labeled HCV core peptide (hepatitis C virus). The test is described as above.
Test [11] concerns the target Mut1T110N biotin labeled HCV core peptide (hepatitis C virus). The description is as above.
Test [12] has as its target Mut6T110S biotin labeled HCV core peptide (hepatitis C virus). The description is as above.
Test [13] concerns the target 92-133 biotin labeled HCV core peptide (hepatitis C virus) (UniProt P26664). Put plainly: EIA; Ab 0.977 ng/mL captured on anti-mouse Fc; bt-peptide 500 ng/mL.
Test [14] concerns the target C113T109N biotin labeled HCV core peptide (hepatitis C virus). The description is as above.
Test [15] addresses Mut1T110N biotin labeled HCV core peptide (hepatitis C virus). The test is described as above.
Test [16] addresses Mut6T110S biotin labeled HCV core peptide (hepatitis C virus). The description is as above.
The target in test [17] is 92-133 biotin labeled HCV core peptide (hepatitis C virus) (UniProt P26664). The test is described as follows: EIA; Ab 31.25 ng/mL captured on anti-mouse Fc; bt-peptide 500 ng/mL.
Test [18] has as its target C113T109N biotin labeled HCV core peptide (hepatitis C virus). Described as above.
The target of test [19] is Mut1T110N biotin labeled HCV core peptide (hepatitis C virus). The description is as above.
Test [20] has as its target Mut6T110S biotin labeled HCV core peptide (hepatitis C virus). The test is described as above.

Like-named read-outs stand apart in the source and are kept apart here.

On to HCV C11-3 monoclonal antibody, for which the signal at 492 nm in test [1] came to 1.01 OD 492 nm; in [2] it was 0.116 OD 492 nm; in [3], 0.11 OD 492 nm; in test [4], 0.807 OD 492 nm; in test [5] it was 1.92 OD 492 nm; in test [6], 0.202 OD 492 nm. Also, the signal at 492 nm in [7] turned out to be 0.155 OD 492 nm; in test [8] it was 2.11 OD 492 nm; in [9], 1.68 OD 492 nm; in [10] it was 0.0963 OD 492 nm; in [11] it was 0.0857 OD 492 nm; in test [12] it was 1.83 OD 492 nm. Moreover, the signal at 492 nm was 0.116 OD 492 nm in test [13]; 0.104 OD 492 nm in test [14]; 0.0755 OD 492 nm in test [15]; 0.101 OD 492 nm in test [16]; 1.55 OD 492 nm in [17]; 0.16 OD 492 nm in test [18]. Moreover, the signal at 492 nm in test [19] was determined as 0.107 OD 492 nm; in test [20], 1.54 OD 492 nm.
